Results published in PMC9482650, “Quantitative fragmentomics allow affinity mapping of interactomes” (Nature Communications, 2022).

How the values were obtained:
Assay in all cases: holdup assay
Set-up in all cases: key: below the threshold = too weak to quantify, mostly under pKd 3.1 to 4
Details in all cases: plain residues with an end cap or a label only (N-terminal biotin on a linker: ado-ado)
[1] = target: Inadl_5, Q8NI35
[2] = target: GORASP1, Q9BQQ3
[3] = target: IL16_4, Q14005
[4] = target: MAGI2_2, Q86UL8
MAGI2_2, Q86UL8, sequence (Q86UL8 410-522): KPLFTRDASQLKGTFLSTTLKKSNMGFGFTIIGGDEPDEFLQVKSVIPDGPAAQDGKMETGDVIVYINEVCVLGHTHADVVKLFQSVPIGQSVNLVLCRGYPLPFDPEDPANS

[5] = target: FRMPD3, Q5JV73
FRMPD3, Q5JV73, sequence (Q5JV73 12-100): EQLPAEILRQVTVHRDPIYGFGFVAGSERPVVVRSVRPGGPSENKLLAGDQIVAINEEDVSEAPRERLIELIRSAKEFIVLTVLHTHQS

[6] = target: DLG4_3, P78352
DLG4_3, P78352, sequence (P78352 306-403): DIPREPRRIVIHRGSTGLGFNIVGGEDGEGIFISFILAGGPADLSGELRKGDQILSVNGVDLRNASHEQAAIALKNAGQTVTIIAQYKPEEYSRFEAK

[7] = target: GRIP2_4, Q9C0E4
GRIP2_4, Q9C0E4, sequence (Q9C0E4 446-548): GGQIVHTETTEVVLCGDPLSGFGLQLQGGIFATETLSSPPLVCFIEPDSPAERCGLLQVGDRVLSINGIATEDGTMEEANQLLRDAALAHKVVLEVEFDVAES

[8] = target: Inadl_4, Q8NI35
Inadl_4, Q8NI35, sequence (Q8NI35 547-651): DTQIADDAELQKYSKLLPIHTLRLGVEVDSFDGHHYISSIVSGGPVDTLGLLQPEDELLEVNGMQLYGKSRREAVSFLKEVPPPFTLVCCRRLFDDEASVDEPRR

[9] = target: FRMPD4, Q14CM0
FRMPD4, Q14CM0, sequence (Q14CM0 67-160): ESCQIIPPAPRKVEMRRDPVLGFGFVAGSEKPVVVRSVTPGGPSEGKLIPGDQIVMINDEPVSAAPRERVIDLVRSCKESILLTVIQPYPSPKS

[10] = target: GRASP, Q7Z6J2
GRASP, Q7Z6J2, sequence (Q7Z6J2 96-193): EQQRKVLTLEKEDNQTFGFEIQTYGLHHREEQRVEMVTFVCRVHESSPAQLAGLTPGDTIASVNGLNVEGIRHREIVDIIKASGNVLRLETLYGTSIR

[11] = target: PDLIM1, O00151
PDLIM1, O00151, sequence (O00151 1-87): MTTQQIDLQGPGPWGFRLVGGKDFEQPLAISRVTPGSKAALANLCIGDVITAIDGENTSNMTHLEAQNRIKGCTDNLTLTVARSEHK

[12] = target: DLG4_2, P78352
DLG4_2, P78352, sequence (P78352 155-259): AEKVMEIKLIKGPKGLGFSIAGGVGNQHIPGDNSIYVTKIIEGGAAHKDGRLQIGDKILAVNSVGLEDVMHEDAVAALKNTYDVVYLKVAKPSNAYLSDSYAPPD

[13] = target: T1, HTRA4, P83105
T1 sequence (P83105 378-476, limits assumed, looked up): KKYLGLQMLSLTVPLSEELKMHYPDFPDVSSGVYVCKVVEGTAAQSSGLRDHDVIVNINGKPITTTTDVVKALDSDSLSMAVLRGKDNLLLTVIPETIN

[14] = target: HTRA1, Q92743
HTRA1, Q92743, sequence (Q92743 360-477): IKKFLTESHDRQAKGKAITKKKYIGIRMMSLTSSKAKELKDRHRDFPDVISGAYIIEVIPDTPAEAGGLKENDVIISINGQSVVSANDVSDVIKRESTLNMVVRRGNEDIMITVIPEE

[15] = target: DLG4_1, P78352
DLG4_1, P78352, sequence (P78352 62-152): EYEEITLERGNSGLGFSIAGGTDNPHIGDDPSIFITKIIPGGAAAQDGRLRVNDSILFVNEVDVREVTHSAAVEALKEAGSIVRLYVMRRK

[16] = target: MAGI1_1, Q96QZ7
MAGI1_1, Q96QZ7, sequence (Q96QZ7 1-106): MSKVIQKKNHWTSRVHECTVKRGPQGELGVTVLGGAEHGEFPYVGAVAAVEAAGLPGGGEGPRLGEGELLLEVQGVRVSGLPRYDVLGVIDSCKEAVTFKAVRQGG

[17] = target: T2, PDZRN3_1, Q9UPQ7
T2 sequence (Q9UPQ7 244-349, limits assumed, looked up): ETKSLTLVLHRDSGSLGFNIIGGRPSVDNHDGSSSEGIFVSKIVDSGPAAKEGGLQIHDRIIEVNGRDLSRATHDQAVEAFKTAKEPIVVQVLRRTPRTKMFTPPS

[18] = target: T3, ARHGAP21, Q5T5U3
T3 sequence (Q5T5U3 45-169, limits assumed, looked up): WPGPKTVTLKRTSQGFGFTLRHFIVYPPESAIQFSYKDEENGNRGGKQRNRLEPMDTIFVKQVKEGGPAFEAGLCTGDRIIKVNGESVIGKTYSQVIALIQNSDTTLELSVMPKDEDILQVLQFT

[19] = target: LAP2, Q96RT1
LAP2, Q96RT1, sequence (Q96RT1 other isoform, or with tags, fused parts or gaps): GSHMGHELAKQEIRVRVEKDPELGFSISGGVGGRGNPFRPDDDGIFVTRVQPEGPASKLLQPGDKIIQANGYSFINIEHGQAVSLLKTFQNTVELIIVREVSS

[20] = target: MAGI2_3, Q86UL8
MAGI2_3, Q86UL8, sequence (Q86UL8 600-682): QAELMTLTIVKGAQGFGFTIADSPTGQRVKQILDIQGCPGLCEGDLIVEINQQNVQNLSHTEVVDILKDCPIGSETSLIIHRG

[21] = target: DLG1_2, Q12959
DLG1_2, Q12959, sequence (Q12959 314-412): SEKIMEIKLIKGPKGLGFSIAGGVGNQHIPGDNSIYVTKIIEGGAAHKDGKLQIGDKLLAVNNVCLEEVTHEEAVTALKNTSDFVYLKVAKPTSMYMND

[22] = target: MAGI2_5, Q86UL8
MAGI2_5, Q86UL8, sequence (Q86UL8 915-1017): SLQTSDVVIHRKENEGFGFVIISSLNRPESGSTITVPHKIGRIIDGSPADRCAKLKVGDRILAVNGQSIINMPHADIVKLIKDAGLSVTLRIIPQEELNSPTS

[23] = target: GRIP2_7, Q9C0E4
GRIP2_7, Q9C0E4, sequence (Q9C0E4 934-1023): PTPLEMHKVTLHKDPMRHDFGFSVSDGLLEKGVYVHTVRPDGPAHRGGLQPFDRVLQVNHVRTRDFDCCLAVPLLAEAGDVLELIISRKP

[24] = target: T4, LIN7C, Q9NUP9
T4 sequence (Q9NUP9 88-185, limits assumed, looked up): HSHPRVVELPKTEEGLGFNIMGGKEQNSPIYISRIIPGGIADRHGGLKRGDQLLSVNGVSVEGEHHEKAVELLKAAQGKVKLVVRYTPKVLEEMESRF

[25] = target: DLG2_3, Q15700
[26] = target: T5, APBA2_2, Q99767
T5 sequence (Q99767 654-744, limits assumed, looked up): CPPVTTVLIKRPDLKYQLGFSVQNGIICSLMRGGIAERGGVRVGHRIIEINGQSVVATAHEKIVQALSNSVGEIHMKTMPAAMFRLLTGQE

[27] = target: Inadl_8, Q8NI35
Inadl_8, Q8NI35, sequence (Q8NI35 1425-1530): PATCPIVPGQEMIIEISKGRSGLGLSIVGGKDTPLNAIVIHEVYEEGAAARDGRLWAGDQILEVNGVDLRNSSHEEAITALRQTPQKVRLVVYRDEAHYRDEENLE

[28] = target: LNX1_1, Q8TBB1
LNX1_1, Q8TBB1, sequence (Q8TBB1 261-371): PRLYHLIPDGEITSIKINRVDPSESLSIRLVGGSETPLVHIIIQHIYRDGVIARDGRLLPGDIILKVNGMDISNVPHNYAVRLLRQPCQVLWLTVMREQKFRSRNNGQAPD

[29] = target: LDB3, O75112
LDB3, O75112, sequence (O75112 1-94): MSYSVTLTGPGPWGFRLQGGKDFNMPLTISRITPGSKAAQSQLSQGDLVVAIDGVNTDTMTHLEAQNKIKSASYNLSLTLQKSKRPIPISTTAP

[30] = target: T6, LNX2_2, Q8N448
T6 sequence (Q8N448 334-432, limits assumed, looked up): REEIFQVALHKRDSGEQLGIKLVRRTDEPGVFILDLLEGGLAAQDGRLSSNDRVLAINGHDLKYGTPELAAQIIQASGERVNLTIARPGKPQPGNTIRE

[31] = target: GOPC, Q9HD26
[32] = target: IL16_3, Q14005
IL16_3, Q14005, sequence (Q14005 1107-1207): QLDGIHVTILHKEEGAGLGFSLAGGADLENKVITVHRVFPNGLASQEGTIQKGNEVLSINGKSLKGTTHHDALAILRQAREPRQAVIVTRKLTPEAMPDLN

[33] = target: TJP1_2, Q07157
TJP1_2, Q07157, sequence (Q07157 181-274): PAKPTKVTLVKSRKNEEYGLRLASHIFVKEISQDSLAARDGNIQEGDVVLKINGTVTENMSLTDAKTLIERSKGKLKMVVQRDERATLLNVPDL

GORASP1, Q9BQQ3, sequence (Q9BQQ3 1-208): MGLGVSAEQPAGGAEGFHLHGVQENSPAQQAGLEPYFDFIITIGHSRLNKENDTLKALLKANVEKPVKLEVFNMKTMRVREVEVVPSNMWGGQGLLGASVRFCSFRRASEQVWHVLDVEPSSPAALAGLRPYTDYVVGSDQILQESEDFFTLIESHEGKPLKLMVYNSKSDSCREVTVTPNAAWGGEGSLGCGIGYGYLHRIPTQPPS
Inadl_5, Q8NI35, sequence (Q8NI35 673-780): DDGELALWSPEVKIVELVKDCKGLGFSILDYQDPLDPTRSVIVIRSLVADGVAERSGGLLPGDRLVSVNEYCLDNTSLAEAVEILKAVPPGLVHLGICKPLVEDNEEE
IL16_4, Q14005, sequence (Q14005 1229-1329): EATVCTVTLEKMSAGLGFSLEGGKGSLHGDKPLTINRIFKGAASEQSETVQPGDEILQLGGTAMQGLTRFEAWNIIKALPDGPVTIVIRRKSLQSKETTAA

In the case of PASAKGPLGV [CLDN19, Q8N6F1], the pKd [1] is reported as “below the threshold”, the pKd [2] is reported as “below the threshold” and the pKd [3] is reported as 3.55. The pKd [4] was “below the threshold”, the pKd [5] was “below the threshold” and the pKd [6] was “below the threshold”. The pKd [7] was “below the threshold”, the pKd [8] was “below the threshold” and the pKd [9] was “below the threshold”. For the same binder, the pKd [10] was “below the threshold”, the pKd [11] was “below the threshold” and the pKd [12] was “below the threshold”. For the same binder, the pKd [13] was “below the threshold”, the pKd [14] was “below the threshold” and the pKd [15] was “below the threshold”. For the same binder, the pKd [16] was “below the threshold”, the pKd [17] was “below the threshold” and the pKd [18] was 3.98. The pKd [19] was “below the threshold”, the pKd [20] was “below the threshold” and the pKd [21] was “below the threshold”. The pKd [22] was “below the threshold”, the pKd [23] was “below the threshold” and the pKd [24] was “below the threshold”. The pKd [25] was “below the threshold”, the pKd [26] was “below the threshold” and the pKd [27] was “below the threshold”. The pKd [28] was “below the threshold”, the pKd [29] was “below the threshold” and the pKd [30] was “below the threshold”. The pKd [31] was “below the threshold”, the pKd [32] was “below the threshold” and the pKd [33] was “below the threshold”.

QFTLRHWLKV [SLC6A3, Q01959] was tested, and the pKd [1] was 3.62, the pKd [2] was 4.13 and the pKd [3] was “below the threshold”. For the same binder, the pKd [4] was 3.68, the pKd [5] was “below the threshold” and the pKd [6] was “below the threshold”. For the same binder, the pKd [7] was “below the threshold”, the pKd [8] was “below the threshold” and the pKd [9] was “below the threshold”. For the same binder, the pKd [10] was 3.8, the pKd [11] was “below the threshold” and the pKd [12] was “below the threshold”. The pKd [13] was 4.1, the pKd [14] was 4.45 and the pKd [15] was “below the threshold”. The pKd [16] was “below the threshold”, the pKd [17] was “below the threshold” and the pKd [18] was 4.09. For the same binder, the pKd [19] was “below the threshold”, the pKd [20] was “below the threshold” and the pKd [21] was “below the threshold”. The pKd [22] was “below the threshold”, the pKd [23] was “below the threshold” and the pKd [24] was “below the threshold”. For the same binder, the pKd [25] was “below the threshold”, the pKd [26] was “below the threshold” and the pKd [27] was “below the threshold”. For the same binder, the pKd [28] was “below the threshold”, the pKd [29] was “below the threshold” and the pKd [30] was 4.84. The pKd [31] was 3.51, the pKd [32] was “below the threshold” and the pKd [33] was 4.19.

With RELVMRVTTV [MARCHF4, Q9P2E8] the pKd [1] was “below the threshold”, the pKd [2] was 4.36 and the pKd [3] was “below the threshold”. The pKd [4] was 5.12, the pKd [5] was “below the threshold” and the pKd [6] was 4.87. For the same binder, the pKd [7] was “below the threshold”, the pKd [8] was “below the threshold” and the pKd [9] was “below the threshold”. The pKd [10] was 4.63, the pKd [11] was “below the threshold” and the pKd [12] was 5.28. The pKd [13] was 4.74, the pKd [14] was 4.96 and the pKd [15] was 5.03. For the same binder, the pKd [16] was “below the threshold”, the pKd [17] was 3.77 and the pKd [18] was “below the threshold”. The pKd [19] was 3.79, the pKd [20] was 4.56 and the pKd [21] was 5.41. For the same binder, the pKd [22] was 4.05, the pKd [23] was “below the threshold” and the pKd [24] was 4.3. For the same binder, the pKd [25] was 4.93, the pKd [26] was “below the threshold” and the pKd [27] was 5.5. The pKd [28] was 3.98, the pKd [29] was “below the threshold” and the pKd [30] was 5.27. The pKd [31] was 5.03, the pKd [32] was “below the threshold” and the pKd [33] was “below the threshold”.

For DQPLEKSTKL [AKAP10, O43572], the pKd [1] was “below the threshold”, the pKd [2] was “below the threshold” and the pKd [3] was “below the threshold”. For the same binder, the pKd [4] was “below the threshold”, the pKd [5] was “below the threshold” and the pKd [6] was “below the threshold”. The pKd [7] was “below the threshold”, the pKd [8] was “below the threshold” and the pKd [9] was 4.07. For the same binder, the pKd [10] was 4.06, the pKd [11] was “below the threshold” and the pKd [12] was “below the threshold”. The pKd [13] was “below the threshold”, the pKd [14] was “below the threshold” and the pKd [15] was “below the threshold”. The pKd [16] was “below the threshold”, the pKd [17] was 3.79 and the pKd [18] was “below the threshold”. The pKd [19] was “below the threshold”, the pKd [20] was “below the threshold” and the pKd [21] was “below the threshold”. The pKd [22] was 4.02, the pKd [23] was “below the threshold” and the pKd [24] was “below the threshold”. For the same binder, the pKd [25] was 3.83, the pKd [26] was “below the threshold” and the pKd [27] was “below the threshold”. For the same binder, the pKd [28] was “below the threshold”, the pKd [29] was “below the threshold” and the pKd [30] was “below the threshold”. For the same binder, the pKd [31] was 3.86, the pKd [32] was “below the threshold” and the pKd [33] was “below the threshold”.
